# Experimental data from US20250042997A1 (PHYLAXIS BIOSCIENCE, published 2025).
# B1: anti-Siglec8-B12-xELL, bivalent VHH-hIgG1-xELL-Fc (Fc fusion)
# chain: QVQVVESGGGLVQPGGSLRLSCAASGSTSLLNAMAWYRQAPGKERELVAAISSGGGTYYADSVKGRFTISTNNAKNTLYLQMNSLKPEDTAMYYCAPGPNYSDYEEINWGQGTQVTVKPGGGGDKTHTCPPCPAPGGPSVFLFPPKPKDTLMISRTPEVTCVVVDVSHEDPEVKFNWYVDGVEVHNAKTKPREEQYNSTYRVVSVLTVLHQDWLNGKEYKCKVSNKALPAPIEKTISKAKGQPREPQVYTLPPSRDELTKNQVSLTCLVKGFYPSDIAVEWESNGQPENNYKTTPPVLDSDGSFFLYSKLTVDKSRWQQGNVFSCSVMHEALHNHYTQKSLSLSPGK
# notes: Homodimer through the Fc; also called cx8982; Bi-B12
# B2: anti-Siglec8-D1-xELL, bivalent VHH-hIgG1-xELL-Fc (Fc fusion)
# chain: QVQLVESGGGLVQPGGSLRLSCAASGSIASIHGMGWYRQAPGKERELVAAIAGEGSTYYADSVKGRFTISRDFAKNTLYLQMNNLKAEDTAMYYCANNDERDDYWGQGTQVTVKPGGGGDKTHTCPPCPAPGGPSVFLFPPKPKDTLMISRTPEVTCVVVDVSHEDPEVKFNWYVDGVEVHNAKTKPREEQYNSTYRVVSVLTVLHQDWLNGKEYKCKVSNKALPAPIEKTISKAKGQPREPQVYTLPPSRDELTKNQVSLTCLVKGFYPSDIAVEWESNGQPENNYKTTPPVLDSDGSFFLYSKLTVDKSRWQQGNVFSCSVMHEALHNHYTQKSLSLSPGK
# notes: Homodimer through the Fc; also called cx8983; Bi-D1
# B3: Hex-E2, hexavalent Siglec8-VHH-Fc (xELL) (Fc fusion)
# chain: QVQLVESGGGLVQPGGSLRLSCATSGIIFTSNVINWYRQAPGKQREFVAFITSITSGQSTMYADAVKGRFTVSRDNDKNIGYLQMTSLQPEDTARYVCNVGAYWGQGTQVTVKPGGSGGSQVQLVESGGGLVQPGGSLRLSCATSGIIFTSNVINWYRQAPGKQREFVAFITSITSGQSTMYADAVKGRFTVSRDNDKNIGYLQMTSLQPEDTARYVCNVGAYWGQGTQVTVKPGGSGGSQVQLVESGGGLVQPGGSLRLSCATSGIIFTSNVINWYRQAPGKQREFVAFITSITSGQSTMYADAVKGRFTVSRDNDKNIGYLQMTSLQPEDTARYVCNVGAYWGQGTQVTVKPGGGGDKTHTCPPCPAPGGPSVFLFPPKPKDTLMISRTPEVTCVVVDVSHEDPEVKFNWYVDGVEVHNAKTKPREEQYNSTYRVVSVLTVLHQDWLNGKEYKCKVSNKALPAPIEKTISKAKGQPREPQVYTLPPSRDELTKNQVSLTCLVKGFYPSDIAVEWESNGQPENNYKTTPPVLDSDGSFFLYSKLTVDKSRWQQGNVFSCSVMHEALHNHYTQKSLSLSPGK
# notes: Homodimer through the Fc; also called cx8522
# B4: Siglec8 hzG2v17, monomeric VHH-hIgG1 fusion (Fc NNT) (Fc fusion)
# chain: EVQLLESGGGEVQPGGSLRLSCAASGSISIFSIYVVAWYRQAPGKEREWVAFIQRGGTANYAESAKGRFTISRDNAKNTVYLQMSSLRAEDTAVYYCNYINSDNEIGGPWGQGTLVTVKP
# notes: Monomeric format; not shown: non-dimerizing human IgG1 Fc variant lacking a hinge (Fc NNT)
# B5: Siglec8 hzG2v18, monomeric VHH-hIgG1 fusion (Fc NNT) (Fc fusion)
# chain: EVQLLESGGGEVQPGGSLRLSCAASGSISIFSKYVVAWYRQAPGKEREWVAFIQRGGTANYAESAKGRFTISRDNAKNTVYLQMSSLRAEDTAVYYCNYINSDNEIGGPWGQGTLVTVKP
# notes: as for B4
# B6: Siglec8 hzG2v25, monomeric VHH-hIgG1 fusion (Fc NNT) (Fc fusion)
# chain: EVQLLESGGGLVQTGGSLRLSCAASGSISIFSMYVVAWYRQAPGKQREWVAFIQRGGTANYAESAKGRFTISRDNAKNTVYLQMSSLRAEDTAVYYCNYINSDNEIGGPWGQGTLVTVKP
# notes: as for B4
# B7: Siglec8 hzG2v26, monomeric VHH-hIgG1 fusion (Fc NNT) (Fc fusion)
# chain: EVQLLESGGGLVRPGGSLRLSCAASGSISIFSMYVVAWYRQAPGKQREWVAFIQRGGTANYAESAKGRFTISRDNAKNTVYLQMSSLRAEDTAVYYCNYINSDNEIGGPWGQGTLVTVKP
# notes: as for B4
# B8: Siglec8 hzG2v28, monomeric VHH-hIgG1 fusion (Fc NNT) (Fc fusion)
# chain: EVQLLESGGGEVQTGGSLRLSCAASGSISIFSMYVVAWYRQAPGKQREWVAFIQRGGTANYAESAKGRFTISRDNAKNTVYLQMSSLRAEDTAVYYCNYINSDNEIGGPWGQGTLVTVKP
# notes: as for B4
# B9: Siglec8 hzG2v29, monomeric VHH-hIgG1 fusion (Fc NNT) (Fc fusion)
# chain: EVQLLESGGGEVRPGGSLRLSCAASGSISIFSMYVVAWYRQAPGKQREWVAFIQRGGTANYAESAKGRFTISRDNAKNTVYLQMSSLRAEDTAVYYCNYINSDNEIGGPWGQGTLVTVKP
# notes: as for B4
# B10: Siglec8 hzG2v30, monomeric VHH-hIgG1 fusion (Fc NNT) (Fc fusion)
# chain: EVQLLESGGGLVRTGGSLRLSCAASGSISIFSMYVVAWYRQAPGKQREWVAFIQRGGTANYAESAKGRFTISRDNAKNTVYLQMSSLRAEDTAVYYCNYINSDNEIGGPWGQGTLVTVKP
# notes: as for B4
# B11: hzG2v19 (Fc fusion)
# VHH: EVQLLESGGGEVQPGGSLRLSCAASGSISIFSSYAVAWYRQAPGKEREWVAFIQRGGTANYAESAKGRFTISRDNAKNTVYLQMSSLRAEDTAVYYCNYINSDNEIGGPWGQGTLVTVKP
# notes: also called Siglec8 hzG2v19; monomeric VHH-hIgG1 fusion (Fc NNT); not shown: The non-dimerizing, hinge-less human IgG1 Fc variant (Fc NNT) and any linker to it
# B12: hzG2v21 (Fc fusion)
# VHH: EVQLLESGGGEVQPGGSLRLSCAASGSISIFSSYAMSWYRQAPGKEREWVAFIQRGGTANYAESAKGRFTISRDNAKNTVYLQMSSLRAEDTAVYYCNYINSDNEIGGPWGQGTLVTVKP
# notes: also called Siglec8 hzG2v21; monomeric VHH-hIgG1 fusion (Fc NNT); not shown: The non-dimerizing, hinge-less human IgG1 Fc variant (Fc NNT) and any linker to it
# B13: anti-Siglec8-G2-xELL, bivalent VHH-hIgG1-xELL-Fc (Fc fusion)
# chain: QVTLKESGGGLVRTGGSLRLSCAASGSISIFSMYVVAWYRQAPGKQREWVAFIQRGGTANYADSAKGRFTISRDNAKNTVYLQMASLKPDDTAVYYCNYINSDNEIGGPWGQGTQVTVKPGGGGDKTHTCPPCPAPGGPSVFLFPPKPKDTLMISRTPEVTCVVVDVSHEDPEVKFNWYVDGVEVHNAKTKPREEQYNSTYRVVSVLTVLHQDWLNGKEYKCKVSNKALPAPIEKTISKAKGQPREPQVYTLPPSRDELTKNQVSLTCLVKGFYPSDIAVEWESNGQPENNYKTTPPVLDSDGSFFLYSKLTVDKSRWQQGNVFSCSVMHEALHNHYTQKSLSLSPGK
# notes: Homodimer through the Fc; also called cx10382
# Key:
# [1] = target: T1, human Siglec-8 (full-length, on transfected CHO or 293 cells, or native on human eosinophils) (human, UniProt Q9NYZ4 17-499); test: flow cytometry on human eosinophils (CD16- CCR3+) from whole blood; anti-human AF647 secondary; MFI
# T1 sequence (Q9NYZ4 17-499): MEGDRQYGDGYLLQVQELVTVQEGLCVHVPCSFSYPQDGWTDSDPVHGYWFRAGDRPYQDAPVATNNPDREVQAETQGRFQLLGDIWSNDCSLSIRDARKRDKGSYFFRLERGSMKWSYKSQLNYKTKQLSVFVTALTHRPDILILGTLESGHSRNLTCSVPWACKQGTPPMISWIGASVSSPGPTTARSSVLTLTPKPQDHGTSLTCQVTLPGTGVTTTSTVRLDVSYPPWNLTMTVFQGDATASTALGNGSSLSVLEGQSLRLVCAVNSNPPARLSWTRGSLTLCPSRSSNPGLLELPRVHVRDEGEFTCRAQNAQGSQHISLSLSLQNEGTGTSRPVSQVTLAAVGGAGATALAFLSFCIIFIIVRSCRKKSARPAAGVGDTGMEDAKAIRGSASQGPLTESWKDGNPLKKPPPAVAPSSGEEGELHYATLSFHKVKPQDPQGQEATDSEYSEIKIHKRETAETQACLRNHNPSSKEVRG
# Description: To determine if increasing the valency of Siglec-8 antibodies could enhance agonist activity, the parental llama B12, D1 and E2 VHH sequences were used to generate tetravalent (Tet-B12 (cx8467; SEQ ID NO:50 linked to an Fe), Tet-D1 (cx8469; SEQ ID NO:56 linked to an Fe), and Tet-E2 (cx8463; SEQ ID NO:62 linked to an Fc)) and hexavalent (Hex-B12 (cx8466; SEQ ID NO:51 linked to an Fe), Hex-D1 (cx8523; SEQ ID NO:57 linked to an Fe), and Hex-E2 (cx8522; SEQ ID NO:165 linked to an Fc)), Siglec8-VHH-Fc antibodies linked to a reduced effector function xELL human Fc region via linker 2. The bivalent (Bi-B12 (cx8982), Bi-D1 (cx8983) and Bi-E2 (cx8984)), tetravalent, and hexavalent Siglec8-VHH-Fc antibodies were assessed by flow cytometry for binding to eosinophils (CD16⁻ CCR3⁺). Cells were isolated from whole blood by centrifugation, washed twice with 2% FBS PBS, and resuspended in 1×RBC lysis buffer for 10 minutes at room temperature (RT), washed once in 2% FBS PBS and treated with a second RBC lysis step and washed twice with 2% FBS. Cells were seeded at 200 k/well and resuspended in Human FC block for 10 minutes at RT. Cells were spun down and then resuspended in titrated test articles starting at 200 nM 1:4 and incubated for 30 minutes at 4° C. before being washed twice and resuspended in secondary mixture (2*; anti-CCR3 FITC, anti-human AF647, PI, anti-CD16 BV605) and incubated for 30 minutes at 4° C., washed twice, and bound antibodies were detected via flow cytometry (Novocyte).
# As shown in FIG. 2A-2C, bivalent, tetravalent, and hexavalent Siglec8-VHH-Fc antibodies B12 (FIG. 2A), D1 (FIG. 2B) and E2 (FIG. 2C) bound to eosinophils. The calculated affinity was similar between the bivalent, tetravalent, and hexavalent hzSiglec8-VHH-Fc antibodies. The observed Bmax was reduced with increasing valency as anticipated, due the fact that the Fc portion of the antibody was detected in this assay and the ratio of Fc regions to anti-Siglec-8 binding domains is inverse to valency. No binding was observed on other granulocyte populations (CD16⁺ CCR3⁻).
# [2] = target: T1, human Siglec-8 (full-length, on …); test: flow cytometry, CHO cells transiently transfected with full-length human Siglec-8 (apparent affinity)
# Experimental: (§1) Binding of the anti-human Siglec-8 VHHs, B12, D1, E2, and G2, as a bivalent VHH-hIgG1-xELL-Fc (VHH of SEQ ID NO: 49, 55, 61, and 1, respectively linked to an Fe xELL via linker 2, these constructs are also designated cx8982, cx8983, cx8984, and cx10382, respectively) was determined by flow cytometry using CHO cells that had been transiently transfected with full-length human Siglec-8. Binding specificity was assessed using untransfected (UT) CHO cells as a control. For the binding assays, 50,000 Siglec-8 CHOs or UT CHOs were seeded in a 96-well plate and a titration of anti-Siglec8-VHH-xELL was added in FACS Buffer (PBS 1% BSA, 0.1% NaN3 pH 7.4) incubating for 30 minutes at 4° C. After washing, the plates were incubated with an A647-conjugated anti-human Fcγ specific secondary antibody (Jackson ImmunoResearch) diluted 1:2000 in FACS buffer for 30 minutes at 4° C. The plates were washed, and binding was determined by flow cytometry quantitating anti-human A647 mean fluorescent intensity using an Intellicyt iQue Plus.
# (§2) The binding was specific to Siglec-8 as there was no detectable binding to untransfected CHO cells for any of the tested constructs.
# [3] = target: T1, human Siglec-8 (full-length, on …); test: flow cytometry on CHO cells transiently transfected with full-length human Siglec-8; A647 anti-human Fc-gamma secondary; Mean RL1-H
# Experimental: as §1, §2
# [4] = target: T1, human Siglec-8 (full-length, on …); test: flow cytometry on 293 cells transiently transfected with full-length human Siglec-8; A647 anti-human Fc-gamma secondary; median fluorescence, nonlinear fit; table under the graph (Kd column without unit, concentration axis nM Ab)
# Experimental: (§3) The binding of the lmG2 and humanized versions (further including Siglec8 hzG2v14), formatted as monomeric VHH-hIgG1 fusions proteins using a non-dimerizing human IgG1 Fe variant region lacking a hinge Fe NNT, was assessed by flow cytometry using 293 cells that had been transiently transfected with full-length human Siglec-8 and detected with an anti-human AF647 secondary antibody. Binding specificity was assessed using untransfected 293 cells as a control. For the binding assays, Siglec-8 293 cells or untransformed 293 cells were seeded in a 96 well U-bottom plate with 50 k cells/well in FACS buffer and incubated at 4° C. with a titration of anti-Siglec8-VHH-NNT for 30 minutes. After washing, the plates were incubated with an A647-conjugated anti-human Fcγ specific secondary antibody diluted 1:10,000 in FACS buffer for 20 minutes at 4° C. The plates were washed, and binding was determined by flow cytometry quantitating anti-human A647 median fluorescent intensity. The maximum specific binding (Bmax) and affinity (Kd) for was determined from the flow cytometry binding data using a nonlinear fit model.
# [5] = target: T1, human Siglec-8 (full-length, on …); test: flow cytometry on 293 cells transiently transfected with full-length human Siglec-8; A647 anti-human Fc-gamma secondary; median fluorescence, nonlinear fit; table under the graph
# Experimental: as §3
# [6] = target: T1, human Siglec-8 (full-length, on …); test: flow cytometry on 293 cells transiently transfected with full-length human Siglec-8; A647 anti-human Fc-gamma secondary; median fluorescence, nonlinear fit; table under the graph (Kd column without unit, concentration axis nM Ab); remark: listed apart in the source
# Experimental: as §3
binder,measurement,setting,value
B1,EC50 (read off the curve),[1],~0.1 nM
same,Kd,[2],0.367 nM
same,EC50 (read off the curve),[3],~0.4 nM
B2,EC50 (read off the curve),[1],~0.06 nM
same,Kd,[2],0.427 nM
same,EC50 (read off the curve),[3],~0.5 nM
B3,binding result,[1],binds
B4,Kd,[4],0.145 nM
same,Bmax,[5],1.17e+06 Median (anti-human A647)
B5,Kd,[4],0.263 nM
same,Bmax,[5],1.05e+06 Median (anti-human A647)
B6,Kd,[4],0.0912 nM
B7,Kd,[4],0.151 nM
B8,Kd,[6],0.0966 nM
B9,Kd,[6],0.111 nM
B10,Kd,[6],0.124 nM
B11,Kd,[4],41.9 nM
same,Bmax,[5],1.24e+06 Median (anti-human A647)
B12,Kd,[4],256 nM
same,Bmax,[5],1.1e+06 Median (anti-human A647)
B13,Kd,[2],0.268 nM
same,EC50 (read off the curve),[3],~0.3 nM
